Assay results from paper PMC3585155, “CELF Family RNA–Binding Protein UNC-75 Regulates Two Sets of Mutually Exclusive Exons of the unc-32 Gene in Neuron-Specific Manners in Caenorhabditis elegans”.

Key:
Assay in all cases: EMSA; EMSA as described previously (ref 55); buffer, salt, pH and temperature not given
Details in all cases: protein: recombinant; tags: FLAG; label: 32P
UNC-75(1-114) RRM1 = UNC-75(1-114) RRM1 (Caenorhabditis elegans, UniProt G5EE68 1-114)
UNC-75(L431F) = UNC-75(L431F) (Caenorhabditis elegans, UniProt G5EE68 1-514, L431F)
UNC-75 = UNC-75 (Caenorhabditis elegans, UniProt G5EE68 1-514)
UNC-75(417-514) RRM3 = UNC-75(417-514) RRM3 (Caenorhabditis elegans, UniProt G5EE68 417-514)
UNC-75(121-213) RRM2 = UNC-75(121-213) RRM2 (Caenorhabditis elegans, UniProt G5EE68 121-213)
FOX-1 = molecular target: T1, FOX-1 (Caenorhabditis elegans, UniProt Q10572 1-429)
T1 sequence: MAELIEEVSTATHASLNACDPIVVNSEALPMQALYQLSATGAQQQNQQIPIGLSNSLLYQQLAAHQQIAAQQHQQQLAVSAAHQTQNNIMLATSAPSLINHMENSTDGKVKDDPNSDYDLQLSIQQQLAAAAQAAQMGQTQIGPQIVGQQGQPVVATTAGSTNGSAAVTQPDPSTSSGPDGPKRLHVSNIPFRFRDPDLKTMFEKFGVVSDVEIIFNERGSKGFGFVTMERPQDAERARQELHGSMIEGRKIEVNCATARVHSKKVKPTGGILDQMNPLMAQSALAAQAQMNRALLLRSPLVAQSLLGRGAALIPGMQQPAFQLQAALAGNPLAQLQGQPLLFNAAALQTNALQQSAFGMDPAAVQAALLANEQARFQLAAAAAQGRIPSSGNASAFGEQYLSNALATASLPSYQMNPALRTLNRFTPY

ASD-1 = molecular target: T2, ASD-1 (Caenorhabditis elegans, UniProt G5EEW7 1-404)
T2 sequence: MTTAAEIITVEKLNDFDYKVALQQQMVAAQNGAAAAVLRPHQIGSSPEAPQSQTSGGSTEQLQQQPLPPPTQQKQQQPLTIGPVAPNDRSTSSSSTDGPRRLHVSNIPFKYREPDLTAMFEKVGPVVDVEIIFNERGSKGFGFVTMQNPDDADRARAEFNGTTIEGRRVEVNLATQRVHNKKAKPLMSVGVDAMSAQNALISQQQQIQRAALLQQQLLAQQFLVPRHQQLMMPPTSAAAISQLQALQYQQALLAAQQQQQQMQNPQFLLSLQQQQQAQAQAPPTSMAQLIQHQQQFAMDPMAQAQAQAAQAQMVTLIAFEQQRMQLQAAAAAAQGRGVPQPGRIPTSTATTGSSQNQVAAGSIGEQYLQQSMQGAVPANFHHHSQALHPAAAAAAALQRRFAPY

B1: Probe 2-1-1 (also printed 2-2-1) (ssRNA)
RNA: GGGAGAUUAGCACGCACCCGCCUUCUACUGUCCCGUUACUUUUUGUUGUGUUGU
B1: no binding (UNC-75(1-114) RRM1); no binding (UNC-75(L431F)); binds (UNC-75). B1: binds (UNC-75(417-514) RRM3); no binding (UNC-75(121-213) RRM2).

B2: Probe 2-1-1b (ssRNA)
RNA: GGGAGAUUAGCACGCAAAAAAAUUCUACUGUCCCGUUACUUUUUGUUGUGUUGU
B2: binds (UNC-75); binds (UNC-75(417-514) RRM3).

B3: Probe 2-1-1e (ssRNA)
RNA: GGGAGAUUAGCACGCACCCGCCUUCUACUGUCCCGUUACUUUUUAUUAUAUUAU
B3: no binding (UNC-75); no binding (UNC-75(417-514) RRM3).

B4: Probe 2-1-1c (ssRNA)
RNA: GGGAGAUUAGCACGCACCCGCCUUAUAAUAUCCCGUUACUUUUUGUUGUGUUGU
B4: binds (UNC-75); binds (UNC-75(417-514) RRM3).

B5: Probe 2-1-1d (ssRNA)
RNA: GGGAGAUUAGCACGCACCCGCCUUCUACUGUAAAAUUAAUUUUUGUUGUGUUGU
B5: binds (UNC-75); binds (UNC-75(417-514) RRM3).

B6: Probe 2-1-1a (ssRNA)
RNA: GGGAGAUUAAAAAAAACCCGCCUUCUACUGUCCCGUUACUUUUUGUUGUGUUGU
B6: binds (UNC-75); binds (UNC-75(417-514) RRM3).

B7: intron 7b WT probe (ssRNA)
RNA: GGGAGAGGUGAUGGGUAGUUUUUGCAUGAUUGU
B7: binds (FOX-1); binds (ASD-1).
